Measured values published in US20080025968A1 (YEDA RESEARCH AND DEVELOPMENT, published 2008).

Biological target: T1, IKK2, endogenous (human, UniProt O14920 1-756)
T1 construct: mature; also called IKKβ
T1 sequence (looked up): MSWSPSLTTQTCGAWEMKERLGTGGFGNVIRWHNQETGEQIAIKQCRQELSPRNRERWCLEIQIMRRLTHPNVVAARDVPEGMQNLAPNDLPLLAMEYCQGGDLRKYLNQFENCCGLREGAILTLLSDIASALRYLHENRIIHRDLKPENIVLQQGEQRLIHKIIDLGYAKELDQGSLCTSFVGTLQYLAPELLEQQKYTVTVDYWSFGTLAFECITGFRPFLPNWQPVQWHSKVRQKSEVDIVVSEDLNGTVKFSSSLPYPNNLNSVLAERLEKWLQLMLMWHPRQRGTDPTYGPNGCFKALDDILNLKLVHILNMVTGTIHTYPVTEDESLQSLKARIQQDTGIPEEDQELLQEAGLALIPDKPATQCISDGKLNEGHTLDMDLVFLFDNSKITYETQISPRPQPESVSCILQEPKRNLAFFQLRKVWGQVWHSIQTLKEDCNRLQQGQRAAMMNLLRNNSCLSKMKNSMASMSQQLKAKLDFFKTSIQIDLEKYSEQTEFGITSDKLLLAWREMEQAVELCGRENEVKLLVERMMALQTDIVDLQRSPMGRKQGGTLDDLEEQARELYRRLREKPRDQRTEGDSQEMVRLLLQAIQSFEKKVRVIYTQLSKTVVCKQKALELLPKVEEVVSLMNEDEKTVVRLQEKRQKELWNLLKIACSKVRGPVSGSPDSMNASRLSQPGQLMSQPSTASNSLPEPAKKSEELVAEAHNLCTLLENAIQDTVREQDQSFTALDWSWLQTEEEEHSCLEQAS
Test: western blot of the p55 TNF receptor complex from Ramos cells after TNF (FIG. 5c)

binding result: binds
B1: p55 TNF receptor, endogenous in Ramos cells (receptor, human, UniProt P19438 30-455, looked up)
chain: LVPHLGDREKRDSVCPQGKYIHPQNNSICCTKCHKGTYLYNDCPGPGQDTDCRECESGSFTASENHLRHCLSCSKCRKEMGQVEISSCTVDRDTVCGCRKNQYRHYWSENLFQCFNCSLCLNGTVHLSCQEKQNTVCTCHAGFFLRENECVSCSNCKKSLECTKLCLPQIENVKGTEDSGTTVLLPLVIFFGLCLLSLLFIGLMYRYQRWKSKLYSIVCGKSTPEKEGELEGTTTKPLAPNPSFSPTPGFTPTLGFSPVPSSTFTSSSTYTPGDCPNFAAPRREVAPPYQGADPILATALASDPIPNPLQKWEDSAHKPQSLDTDDPATLYAVVENVPPLRWKEFVRRLGLSDHEIDRLELQNGRCLREAQYSMLATWRRRTPRREATLELLGRVLRDMDLLGCLEDIEEALCGPAALPPAPSLLR
notes: whole, on cells; TNF-receptor complex precipitated as described by Zhang et al., 2000
